Data on three substances can be found in PMC5136619, “Crystal structure of bacterial haem importer complex in the inward-facing conformation” (Nature Communications, 2016).

Experiment [1] deals with BhuV, nucleotide-binding ATPase subunit (NBD) of the haem importer BhuUV (Burkholderia cenocepacia). Nature of the experiment: crystal structure; BhuUV without BhuT, nucleotide-free; 30% PEG 400, 0.1 M NaCl, 0.1 M Li2SO4, 0.1 M Tris-HCl pH 8.5, 4 °C; 2.8 Å.
Experiment [2] has the same target. As to the kind of experiment: crystal structure; BhuUV-T complex, nucleotide-free and haem-free, in n-nonyl-beta-D-glucopyranoside; crystallised at 20 °C, 15% PEG 2000, 0.1 M HEPES pH 7.6; 3.2 Å.
Experiment [3] concerns the target BhuUV haem importer complex (two BhuU and two BhuV) (Burkholderia cenocepacia).
The target in experiment [4] is BhuU, transmembrane permease subunit (TMD) of the haem importer BhuUV (Burkholderia cenocepacia). As to the kind of experiment: crystal structure; BhuUV without BhuT, nucleotide-free; 30% PEG 400, 0.1 M NaCl, 0.1 M Li2SO4, 0.1 M Tris-HCl pH 8.5, 4 °C; 2.8 Å.
Experiment [5] has the same target. As to the kind of experiment: crystal structure; BhuUV-T complex, nucleotide-free and haem-free, in n-nonyl-beta-D-glucopyranoside; crystallised at 20 °C, 15% PEG 2000, 0.1 M HEPES pH 7.6; 3.2 Å.

The stoichiometry N is a count of units in the complex or per binding partner. For “BhuV, nucleotide-binding ATPase subunit (NBD) of the haem importer BhuUV (natural protein)”, the stoichiometry N in experiment [1] and in experiment [2] was 2 each time.

Turning to “BhuT, periplasmic haem-binding protein (PBP), residues 40-311 (domain or fragment)”, in experiment [3], the ATPase activity (Vmax) of BhuUV in detergent solution on addition of haem-free BhuT (Vmax 5.0 to 7.1 μmol min^−1 mg^−1) amounted to 1.4 fold and the ATPase activity of BhuUV reconstituted in liposomes, with BhuT is 1.4 fold.

As for “BhuU, transmembrane permease subunit (TMD) of the haem importer BhuUV (natural protein)”, the stoichiometry N in experiment [4] and in experiment [5] was 2 each time.
